{"source": "paper PMC9168619", "about": "(The Journal of Biological Chemistry, 2022)", "target": "T1, Nup98 (human (endogenous in HeLa), UniProt P52948 1-880)", "T1 construct": "Nup98, the N-terminal product of the autoproteolytic cleavage of the Nup98-Nup96 precursor", "T1 sequence (looked up)": "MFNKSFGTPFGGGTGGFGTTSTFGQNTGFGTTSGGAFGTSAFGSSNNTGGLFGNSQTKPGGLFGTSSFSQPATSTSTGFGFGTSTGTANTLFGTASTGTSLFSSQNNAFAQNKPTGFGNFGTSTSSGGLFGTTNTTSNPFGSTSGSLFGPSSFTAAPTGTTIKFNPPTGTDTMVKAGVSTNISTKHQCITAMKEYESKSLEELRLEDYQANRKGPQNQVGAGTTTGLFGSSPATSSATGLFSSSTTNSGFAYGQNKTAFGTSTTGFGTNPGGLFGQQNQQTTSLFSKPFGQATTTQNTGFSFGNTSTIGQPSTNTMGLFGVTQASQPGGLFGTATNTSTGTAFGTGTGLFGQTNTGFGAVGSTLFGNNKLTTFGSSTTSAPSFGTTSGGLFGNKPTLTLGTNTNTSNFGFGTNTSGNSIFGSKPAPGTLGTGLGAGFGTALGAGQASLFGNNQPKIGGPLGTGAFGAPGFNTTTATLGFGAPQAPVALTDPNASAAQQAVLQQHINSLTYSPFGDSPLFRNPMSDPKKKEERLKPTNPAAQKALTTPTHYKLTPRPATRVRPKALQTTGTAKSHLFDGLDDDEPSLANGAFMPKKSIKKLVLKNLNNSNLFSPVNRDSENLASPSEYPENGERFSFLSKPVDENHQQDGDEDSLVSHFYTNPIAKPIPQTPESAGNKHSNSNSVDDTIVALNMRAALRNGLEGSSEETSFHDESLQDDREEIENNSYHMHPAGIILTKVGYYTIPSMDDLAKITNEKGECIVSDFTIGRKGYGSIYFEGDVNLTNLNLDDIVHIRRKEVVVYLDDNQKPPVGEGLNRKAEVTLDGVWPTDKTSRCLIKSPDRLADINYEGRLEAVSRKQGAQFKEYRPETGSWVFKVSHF", "assay": "[…] 300 mM NaCl, 20 mM Hepes pH 7.4, 0.5% Triton X-100; +4 °C; […]", "details": "partners not purified", "data": [{"binder": "Rae1 (natural protein, human (endogenous in HeLa), UniProt P78406 1-368, looked up, Rae1, shuttling mRNA export factor) MSLFGTTSGFGTSGTSMFGSATTDNHNPMKDIEVTSSPDDSIGCLSFSPPTLPGNFLIAGSWANDVRCWEVQDSGQTIPKAQQMHTGPVLDVCWSDDGSKVFTASCDKTAKMWDLSSNQAIQIAQHDAPVKTIHWIKAPNYSCVMTGSWDKTLKFWDTRSSNPMMVLQLPERCYCADVIYPMAVVATAERGLIVYQLENQPSEFRRIESPLKHQHRCVAIFKDKQNKPTGFALGSIEGRVAIHYINPPNPAKDNFTFKCHRSNGTNTSAPQDIYAVNGIAFHPVHGTLATVGSDGRFSFWDKDARTKLKTSEQLDQPISACCFNHNGNIFAYASSYDWSKGHEFYNPQKKNYIFLRNAAEELKPRNKK", "values": [{"measurement": "stoichiometry N", "result": "~1 Nup98:Rae1"}]}]}
